Consider three substances from US20160002357A1.

The target of experiment [1] is human P-cadherin, cell surface expressed (human) (UniProt P22223). Description: flow cytometry, PE-conjugated mAb, H1650_Luc cells. A general note: A flow cytometer gives signals particle by particle.
For experiment [2] the target is unchanged. Description: flow cytometry, PE-conjugated mAb, H322_Luc cells.
Experiment [3] has the same target. Description: flow cytometry, PE-conjugated mAb, SW620_Luc cells.
For experiment [4] the target is unchanged. Kind of experiment: flow cytometry, PE-conjugated mAb, H1975_Luc cells.
The target is the same in experiment [5]. Kind of experiment: flow cytometry, PE-conjugated mAb, Ls174T cells.
Experiment [6] has the same target. Kind of experiment: flow cytometry, PE-conjugated mAb, LoVo_Luc cells.
For experiment [7] the target is unchanged. Description: flow cytometry, PE-conjugated mAb, SUM149_Luc cells.
For experiment [8] the target is unchanged. Kind of experiment: flow cytometry, PE-conjugated mAb, BT20_Luc cells.
For experiment [9] the target is unchanged. Kind of experiment: flow cytometry, PE-conjugated mAb, SW480_Luc cells.
For experiment [10] the target is unchanged. Kind of experiment: flow cytometry, PE-conjugated mAb, SW620 cells.
For experiment [11] the target is unchanged. Kind of experiment: flow cytometry, PE-conjugated mAb, HCT116 cells.
Experiment [12] has the same target. Description: flow cytometry, PE-conjugated mAb, Ls174T_Luc cells.
For experiment [13] the target is unchanged. Description: flow cytometry, PE-conjugated mAb, HT29_Luc cells.
Experiment [14] has the same target. Kind of experiment: flow cytometry, PE-conjugated mAb, Colo205_Luc cells.
Experiment [15] has the same target. Kind of experiment: flow cytometry, PE-conjugated mAb, SW480 cells.
For experiment [16] the target is unchanged. Kind of experiment: flow cytometry, PE-conjugated mAb, SUM149 cells.
Experiment [17] has the same target. Description: flow cytometry, PE-conjugated mAb, HCT116_Luc cells.
Experiment [18] concerns the target human P-cadherin expressed on the cell surface (human) (UniProt P22223). Description: cell ELISA, H1650 cells. In general terms: An ELISA detects its analyte on a solid surface through an enzyme-linked reagent.
Experiment [19] has as its target huP-cad-ECD biotinylated (human) (UniProt P22223). Description: ELISA, recombinant protein.
A further experiment concerns the target muP-cad-ECD (murine) (UniProt P10287). Kind of experiment: ELISA, recombinant protein.
The target of another experiment is huP-cad-ECD (human) (UniProt P22223). Kind of experiment: ELISA, recombinant protein.
Chain of huP-cad-ECD (human) (P22223 108-654): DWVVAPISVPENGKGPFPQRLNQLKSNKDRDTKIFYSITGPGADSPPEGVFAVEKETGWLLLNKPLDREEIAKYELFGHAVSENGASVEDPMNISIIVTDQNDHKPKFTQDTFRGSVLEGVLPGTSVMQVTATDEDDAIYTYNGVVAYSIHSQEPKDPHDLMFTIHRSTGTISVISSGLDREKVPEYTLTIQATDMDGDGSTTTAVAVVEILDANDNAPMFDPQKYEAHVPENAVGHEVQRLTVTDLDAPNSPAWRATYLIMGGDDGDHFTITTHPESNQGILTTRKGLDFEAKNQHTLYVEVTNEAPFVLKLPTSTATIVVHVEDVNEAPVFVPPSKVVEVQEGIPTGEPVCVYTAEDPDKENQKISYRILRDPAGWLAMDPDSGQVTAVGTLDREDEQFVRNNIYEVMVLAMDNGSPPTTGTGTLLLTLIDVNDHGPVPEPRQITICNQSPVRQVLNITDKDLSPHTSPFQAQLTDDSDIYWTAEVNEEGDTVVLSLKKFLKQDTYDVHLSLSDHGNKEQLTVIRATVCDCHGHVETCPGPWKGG
The target of experiment [20] is human P-cadherin expressed on the cell surface (human) (UniProt P22223). Description: cell ELISA, SW480-huPcad cells.
Chain of human P-cadherin expressed on the cell surface (human) (P22223 108-829): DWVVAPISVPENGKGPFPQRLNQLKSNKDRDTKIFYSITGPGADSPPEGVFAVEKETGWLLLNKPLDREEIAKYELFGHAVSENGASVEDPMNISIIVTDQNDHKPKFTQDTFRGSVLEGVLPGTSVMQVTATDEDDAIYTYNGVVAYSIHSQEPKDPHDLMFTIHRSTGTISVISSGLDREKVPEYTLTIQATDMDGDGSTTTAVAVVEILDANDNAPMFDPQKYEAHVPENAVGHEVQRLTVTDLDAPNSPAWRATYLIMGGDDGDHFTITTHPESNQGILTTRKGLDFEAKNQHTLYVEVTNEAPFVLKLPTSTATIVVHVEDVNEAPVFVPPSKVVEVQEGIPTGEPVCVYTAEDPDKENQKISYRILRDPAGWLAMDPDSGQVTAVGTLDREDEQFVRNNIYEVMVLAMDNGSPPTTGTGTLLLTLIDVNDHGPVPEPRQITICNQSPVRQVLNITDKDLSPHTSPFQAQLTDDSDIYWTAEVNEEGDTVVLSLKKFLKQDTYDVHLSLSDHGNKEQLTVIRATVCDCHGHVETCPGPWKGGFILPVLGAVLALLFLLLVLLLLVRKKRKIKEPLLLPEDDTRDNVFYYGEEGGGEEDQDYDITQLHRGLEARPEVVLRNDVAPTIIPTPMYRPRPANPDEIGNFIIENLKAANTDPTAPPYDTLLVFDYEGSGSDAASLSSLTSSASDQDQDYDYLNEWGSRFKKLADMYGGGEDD
For experiment [21] the target is unchanged. Description: cell ELISA, CHO-huPcad cells.
Experiment [22] addresses human P-cadherin, cell surface expressed (human) (UniProt P22223). Kind of experiment: flow cytometry, PE-labeled mAb, SW480 cells.
Experiment [23] has the same target. Kind of experiment: quantitative flow cytometry (QuantiBRITE PE), H1975_Luc cells.
The target is the same in experiment [24]. Description: flow cytometry, PE-labeled mAb, Ls174T_Luc cells.
For experiment [25] the target is unchanged. Kind of experiment: quantitative flow cytometry (QuantiBRITE PE), HCT116_Luc cells.
For experiment [26] the target is unchanged. Kind of experiment: flow cytometry, PE-labeled mAb, SW620 cells.
The target is the same in experiment [27]. Description: flow cytometry, PE-labeled mAb, HT29_Luc cells.
For experiment [28] the target is unchanged. Description: quantitative flow cytometry (QuantiBRITE PE), Colo205_Luc cells.
Experiment [29] has the same target. Kind of experiment: flow cytometry, PE-labeled mAb, H1650_Luc cells.
For experiment [30] the target is unchanged. Kind of experiment: quantitative flow cytometry (QuantiBRITE PE), BT20_Luc cells.
For experiment [31] the target is unchanged. Kind of experiment: quantitative flow cytometry (QuantiBRITE PE), H1650_Luc cells.
Experiment [32] shares this target. Description: quantitative flow cytometry (QuantiBRITE PE), Ls174T_Luc cells.
The target is the same in experiment [33]. Description: quantitative flow cytometry (QuantiBRITE PE), SW620_Luc cells.
For experiment [34] the target is unchanged. Kind of experiment: quantitative flow cytometry (QuantiBRITE PE), SUM149 cells.
The target is the same in experiment [35]. Kind of experiment: quantitative flow cytometry (QuantiBRITE PE), SUM149_Luc cells.
For experiment [36] the target is unchanged. Description: flow cytometry, PE-labeled mAb, HCT116 cells.
The target is the same in experiment [37]. Kind of experiment: quantitative flow cytometry (QuantiBRITE PE), SW480 cells.
Experiment [38] has the same target. Description: flow cytometry, PE-labeled mAb, Colo205_Luc cells.
For experiment [39] the target is unchanged. Description: flow cytometry, PE-labeled mAb, Ls174T cells.
Experiment [40] shares this target. Kind of experiment: quantitative flow cytometry (QuantiBRITE PE), LoVo_Luc cells.
The target is the same in experiment [41]. Kind of experiment: flow cytometry, PE-labeled mAb, HCT116_Luc cells.
Experiment [42] has the same target. Kind of experiment: quantitative flow cytometry (QuantiBRITE PE), HCT116 cells.
Experiment [43] has the same target. Kind of experiment: flow cytometry, PE-labeled mAb, SUM149 cells.
Experiment [44] has the same target. Description: quantitative flow cytometry (QuantiBRITE PE), SW480_Luc cells.
The target is the same in experiment [45]. Kind of experiment: flow cytometry, PE-labeled mAb, SW480_Luc cells.
Experiment [46] has the same target. Kind of experiment: quantitative flow cytometry (QuantiBRITE PE), H322_Luc cells.
For experiment [47] the target is unchanged. Description: quantitative flow cytometry (QuantiBRITE PE), SW620 cells.
For experiment [48] the target is unchanged. Kind of experiment: flow cytometry, PE-labeled mAb, SUM149_Luc cells.
The target is the same in experiment [49]. Description: quantitative flow cytometry (QuantiBRITE PE), HT29_Luc cells.
For experiment [50] the target is unchanged. Description: flow cytometry, PE-labeled mAb, H322_Luc cells.
Experiment [51] shares this target. Kind of experiment: flow cytometry, PE-labeled mAb, SW620_Luc cells.
For experiment [52] the target is unchanged. Description: quantitative flow cytometry (QuantiBRITE PE), Ls174T cells.
The target is the same in experiment [53]. Kind of experiment: flow cytometry, PE-labeled mAb, LoVo_Luc cells.
Experiment [54] has the same target. Kind of experiment: flow cytometry, PE-labeled mAb, BT20_Luc cells.
The target is the same in experiment [55]. Description: flow cytometry, PE-labeled mAb, H1975_Luc cells.

Chain of human P-cadherin, cell surface expressed (human) (P22223 108-829): as above
Chain of huP-cad-ECD biotinylated (human) (P22223 108-654): as the sequence (P22223 108-654) above
Chain of muP-cad-ECD (murine) (P10287 100-647): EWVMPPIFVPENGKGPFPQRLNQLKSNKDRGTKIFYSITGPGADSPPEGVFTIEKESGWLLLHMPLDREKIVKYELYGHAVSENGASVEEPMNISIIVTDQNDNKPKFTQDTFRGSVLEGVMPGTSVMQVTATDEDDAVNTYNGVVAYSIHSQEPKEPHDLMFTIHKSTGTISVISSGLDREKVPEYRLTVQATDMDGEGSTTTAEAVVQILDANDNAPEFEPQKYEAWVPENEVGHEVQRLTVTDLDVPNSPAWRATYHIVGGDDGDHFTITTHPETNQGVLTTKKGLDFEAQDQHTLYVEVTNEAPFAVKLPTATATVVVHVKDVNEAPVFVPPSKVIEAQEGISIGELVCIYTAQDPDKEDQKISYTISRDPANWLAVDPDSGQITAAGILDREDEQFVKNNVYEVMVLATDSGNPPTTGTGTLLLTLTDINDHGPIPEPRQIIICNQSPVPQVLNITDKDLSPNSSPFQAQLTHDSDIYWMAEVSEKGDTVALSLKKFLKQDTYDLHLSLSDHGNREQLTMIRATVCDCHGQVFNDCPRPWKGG

Turning to “control mouse IgG1 mAb (Biolegend), PE conjugated (antibody)”, the MFI worked out at 254 in experiment [1]; 242 in experiment [2]; 125 in experiment [3]; 373 in [4]; 222 in experiment [5]; 175 in [6]. The MFI was determined as 213 in experiment [7]; 225 in experiment [8]; 151 in [9]; 88 in [10]; 239 in experiment [11]; 94 in experiment [12]. Further, the MFI in [13] was found to be 282; in experiment [14] it was 173; in experiment [15] it was 171; in experiment [16], 68; in experiment [17], 229.
For orientation: EC50 means the concentration at which the effect is half-maximal. Regarding “anti-P-cadherin clinical mAb PF-03732010 (antibody)”, the 50% effective concentration (EC50) in [18] was 0.209 nM; in experiment [19], 0.0188 nM; with muP-cad-ECD (murine), 2.33 nM; with huP-cad-ECD (human), 1.94 nM; in [20], 0.167 nM; in experiment [21], 0.329 nM.
Turning to “anti-human P-cadherin mAb PF-03732010, phycoerythrin (PE) labeled (antibody)”, the MFI in [22] was determined as 2470; in experiment [24] it was 290; in experiment [26], 297; in [27], 787; in experiment [29], 7960; in [36], 8030. The MFI in [38] amounted to 357; in [39], 986; in experiment [41], 5660; in [43], 2870; in experiment [45], 1260; in [48] it was 3720. Moreover, the MFI in [50] was 3230; in experiment [51], 276; in experiment [53], 1390; in experiment [54], 5240; in experiment [55] it was 3160. The ABC (antibodies bound per cell) (antibodies bound per cell) in [23] turned out to be 15400; in [25] it was 26400; in experiment [28], 874; in [30], 24300; in [31], 37600; in experiment [32], 929. Moreover, the ABC (antibodies bound per cell) (antibodies bound per cell) in experiment [33] was 715; in [34], 15400; in experiment [35] it was 17000; in [37], 12700; in experiment [40], 5800; in experiment [42] it was 43800. For the same substance, the ABC (antibodies bound per cell) (antibodies bound per cell) was 5300 in experiment [44]; 16600 in experiment [46]; 1120 in experiment [47]; 2420 in experiment [49]; 4160 in experiment [52].
